Sequences and labels used below:
B1: ET200-101 scFv (scFv)
scFv: QAVLTQPPSASGAPGQRVTVSCSGSNSNIGSNYVNWYQQFPGTAPKLLMYSSSQRPSGVPDRFSGSKSGTSASLAISGLHSEDEADYYCATWDDSLNAWVFGGGTKLTVLGSRGGGGSGGGGSGGGGSLEMAEVQLVQSGAEVRKPGASVKVSCKTSGYTFTWYAIHWVRQAPGQRLEWMGWINAGSGNTKYSQKFQGRVTLTRDTSASTAYMELSSLRSDDTAVYYCARPNNYGSGGDVFDIWGQGTMVTVSS
notes: VL-linker-VH; screened as scFv phage clone
B2: ET200-098 scFv (scFv)
scFv: QPVLTQPPSVSKGLRQTATLTCTGNSNNVGNLGVAWLQQHQGHPPKLLSYRNNNRPSGISERLSASRSGNTASLTITGLQPEDEADYYCSAWDSSLSAWVFGGGTKLTVLGSRGGGGSGGGGSGGGGSLEMAEVQLVESGGVVVQPGGSLRLSCAASGFTFDDYAMHWVRQAPGKGLEWVSLINWDGGSTYYADSVKGRFTISRDNSKNSLYLQMNSLRAEDTALYYCAKGMGLRAFDYWGQGTLVTVSS
notes: as for B1
B3: ET200-099 scFv (scFv)
scFv: QSVLTQPPSASGTPGQRVTISCSGSSSNIGSNTVNWYQQLPGTAPKLLIYSNDQRPSGVPDRFSGSKSGTSASLAISGLQSEDEADYYCASWDDSLNGRYVFGTGTKVTVLGSRGGGGSGGGGSGGGGSLEMAQVQLVQSGAEVRKPGASVKVSCKTSGYTFSWYAIHWVRQAPGQRLEWMGWINAGNGNTKYSQKFQGRVSLTRDTSASTAYMELSSLRSDDTAVYYCARPDNYGSGGDVFDIWGQGTMVTVSS
notes: as for B1
B4: ET200-007 scFv (scFv)
scFv: SYVLTQPLSVSVAPGKTARITCGGNNIGSKTVHWYQQKPGQAPVLVIYYDSDRPSGIPERFSGSNSGNTATLTISRVEAGDEADYYCQVWDSSSDHRVFGGGTKLTVLGSRGGGGSGGGGSGGGGSLEMAQVQLQESGPGLVKPSETLSLTCNVSGYSISSGYFWGWIRQPPGKGLEWIGSIYHSRSTYYNPSLKSRVTISVDTSKNQFSLKLNSVTAADTAVYYCARGYGYFDYWGQGTLVTVSS
notes: as for B1
B5: ET200-081 scFv (scFv)
scFv: QSALTQPASVSGSPGQSITISCTGTSSDIGGYNYVSWYQQHPGKAPKLMIYDVSNRPSGVSNRFSGSKSGNTASLTISGLQAEDEADYYCISYTRTWNPYVFGSGTKVTVLGSRGGGGSGGGGSGGGGSLEMAEVQLVQSGGGVVQPGGSLRLSCAASGFTFDDYAMHWVRQAPGKGLEWVSLISGDGGSTYYADSVKGRFTISRDNSKNSLYLQMNSLRTEDTALYYCAKDRAAAGYYYYGMDVWGQGTTVTVSS
notes: as for B1
B6: ET200-100 scFv (scFv)
scFv: NFMLTQPHSVSESPGKTVTISCTRSSGSIASNFVQWYQQRPGSAPTPMIYEDNNRPPGVPDRFSASVDSSSNSASLTISGLKTEDEADYYCQSYDTSNVVFGGGTKLTVLGSRGGGGSGGGGSGGGGSLEMAEVQLVESGGGLVQPGGSLRLSCAASGFTFSSYEMNWVRQAPGKGLEWVSYISSSGSTIYYADSVKGRFTISRDNAKNSLYLQMNSLRAEDTAVYYCARWDYGMDVWGQGTTVTVSS
notes: as for B1
B7: ET200-104 scFv (scFv)
scFv: B6 scFv with F33Y, P47T, M48V, N54Q, P57S, A65G, V67I, T96S, L107V
notes: as for B1
B8: ET200-097 scFv (scFv)
scFv: LPVLTQPPSVSVSPGQTAIITCSGDKLGEKYVSWYQQKPGQSPVLVIDQDTRRPSGIPERFSGSNSGTTATLTISGTQAMDEADYYCQAWDRGVVFGGGTKLTVLGSRGGGGSGGGGSGGGGSLEMAEVQLVESGGDLVQPGRSLRLSCAASGFTFNDYAMHWVRQAPGKGLEWVSGISWSGNNIGYADSVKGRFTISRDNAKNSLYLQMNSLRAEDTALYYCAKDSIRYGITWGGFDYWGQGTLVTVSS
notes: as for B1

Where a chain is given by its changes, count along the chain named.

The target in the test is T1, human Fc Receptor-Like 5 (FcRL5), full length, expressed on cells (human, UniProt Q96RD9 16-977).
T1 construct: also called CD307e; IRTA2
T1 sequence: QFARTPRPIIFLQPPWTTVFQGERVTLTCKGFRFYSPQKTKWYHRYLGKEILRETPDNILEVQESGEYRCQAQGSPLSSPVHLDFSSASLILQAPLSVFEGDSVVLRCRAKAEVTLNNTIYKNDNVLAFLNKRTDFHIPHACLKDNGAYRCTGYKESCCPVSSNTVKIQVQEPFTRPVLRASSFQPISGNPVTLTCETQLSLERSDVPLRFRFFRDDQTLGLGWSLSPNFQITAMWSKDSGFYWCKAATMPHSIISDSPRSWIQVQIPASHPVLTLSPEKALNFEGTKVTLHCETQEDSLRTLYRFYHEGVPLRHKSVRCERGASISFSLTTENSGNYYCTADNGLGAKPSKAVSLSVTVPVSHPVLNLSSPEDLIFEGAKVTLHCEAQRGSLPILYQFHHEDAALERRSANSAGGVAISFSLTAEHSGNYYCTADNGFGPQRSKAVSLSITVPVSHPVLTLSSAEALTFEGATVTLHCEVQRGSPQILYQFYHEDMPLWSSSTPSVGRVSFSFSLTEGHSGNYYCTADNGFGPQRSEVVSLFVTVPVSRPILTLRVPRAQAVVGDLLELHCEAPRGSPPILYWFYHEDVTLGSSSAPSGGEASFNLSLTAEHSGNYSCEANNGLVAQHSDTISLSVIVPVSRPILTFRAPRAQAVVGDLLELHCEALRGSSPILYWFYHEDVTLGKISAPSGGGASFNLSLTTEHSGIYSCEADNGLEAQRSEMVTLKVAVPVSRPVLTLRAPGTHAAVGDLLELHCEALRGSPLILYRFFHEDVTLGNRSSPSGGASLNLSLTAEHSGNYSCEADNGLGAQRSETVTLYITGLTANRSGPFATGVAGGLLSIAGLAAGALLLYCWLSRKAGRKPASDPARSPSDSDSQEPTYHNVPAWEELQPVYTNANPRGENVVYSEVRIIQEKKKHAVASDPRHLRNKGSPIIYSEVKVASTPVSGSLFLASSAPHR
The test can be described thus: scFv phage: ELISA on His-tag FcRL5, flow cytometry on FcRL5-overexpressing 3T3 and Raji cells. On the technique in general: An ELISA detects its analyte on a solid surface through an enzyme-linked reagent.
As for B1, the binding result is “binds”.

As for B2, the binding result is given as “binds”.

Take B3: the binding result is reported as “binds”.

Take B4: the binding result is “binds”.

For the molecule B5, the binding result is “binds”.

For the molecule B6, the binding result is reported as “binds”.

B7: the binding result is reported as “binds”.

Regarding B8, the binding result is on record as “binds”.

The values are drawn from patent US20230020729A1 (Memorial Sloan Kettering, published 2023).
